Values of other authors, collected in paper PMC9442343.

Molecular target: IL-18 (Homo sapiens) (UniProt Q14116)
Sequence (Q14116 37-193): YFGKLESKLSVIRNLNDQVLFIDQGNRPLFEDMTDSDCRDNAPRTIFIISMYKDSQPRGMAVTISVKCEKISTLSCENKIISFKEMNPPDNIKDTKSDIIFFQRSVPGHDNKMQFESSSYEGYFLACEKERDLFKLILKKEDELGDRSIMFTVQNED

IL-18BP, sequence (O95998 31-194): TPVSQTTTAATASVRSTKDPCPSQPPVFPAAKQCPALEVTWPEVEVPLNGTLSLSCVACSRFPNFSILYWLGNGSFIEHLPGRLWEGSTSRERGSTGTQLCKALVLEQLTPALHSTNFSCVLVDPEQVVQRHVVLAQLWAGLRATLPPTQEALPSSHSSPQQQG

**Q.** For IL-18BP (from UniProt O95998), which Kd is on record?
**A.** 0.4 nM
